For one molecule, Kd results are on record in publication PMC2712759 (2009).

What is called Kd is the equilibrium constant for the complex coming apart.

In this assay the target is purified recombinant Hsp70 (UniProt P0DMV8 1-641).
Chain of purified recombinant Hsp70 (P0DMV8 whole entry): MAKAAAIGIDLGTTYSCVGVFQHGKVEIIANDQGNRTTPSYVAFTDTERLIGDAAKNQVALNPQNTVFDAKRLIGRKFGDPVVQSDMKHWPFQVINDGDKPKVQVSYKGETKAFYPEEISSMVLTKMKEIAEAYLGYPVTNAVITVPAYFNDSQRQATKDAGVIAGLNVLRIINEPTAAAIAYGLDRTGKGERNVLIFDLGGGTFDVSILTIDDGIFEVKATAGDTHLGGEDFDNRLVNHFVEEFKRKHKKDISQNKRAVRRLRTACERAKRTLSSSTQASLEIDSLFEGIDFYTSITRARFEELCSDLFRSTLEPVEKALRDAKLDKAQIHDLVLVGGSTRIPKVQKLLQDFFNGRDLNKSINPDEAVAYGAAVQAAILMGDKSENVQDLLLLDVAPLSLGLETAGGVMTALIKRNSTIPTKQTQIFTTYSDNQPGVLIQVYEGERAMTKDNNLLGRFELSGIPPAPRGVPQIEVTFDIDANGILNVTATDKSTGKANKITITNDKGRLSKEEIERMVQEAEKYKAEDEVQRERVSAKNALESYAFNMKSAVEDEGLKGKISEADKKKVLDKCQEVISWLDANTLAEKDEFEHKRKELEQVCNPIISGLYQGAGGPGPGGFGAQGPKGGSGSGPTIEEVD

B1: recombinant normal PABPN1 (wt-PABPN1) from E. coli (natural protein)
chain: MAAAAAAAAAAGAAGGRGSGPGRRRHLVPGAGGEAGEGAPGGAGDYGNGLESEELEPEELLLEPEPEPEPEEEPPRPRAPPGAPGPGPGSGAPGSQEEEEEPGLVEGDPGDGAIEDPELEAIKARVREMEEEAEKLKELQNEVEKQMNMSPPPGNAGPVIMSIEEKMEADARSIYVGNVDYGATAEELEAHFHGCGSVNRVTILCDKFSGHPKGFAYIEFSDKESVRTSLALDESLFRGRQIKVIPKRTNRPGISTTDRGFPRARYRARTTNYNSSRSRFYSGFNSRPRGRVYRGRARATSWYSPY
Take B1: the Kd came out at 14 µM.
